Reference: paper PMC10739865, “The Mycobacterium tuberculosis methyltransferase Rv2067c manipulates host epigenetic programming to promote its own survival” (Nature Communications, 2023)

Molecular target: the molecule itself
Assay: crystal structure

B1: Mycobacterium tuberculosis methyltransferase Rv2067c (tagless recombinant protein used for crystallization) (enzyme)
chain: TDDHPRADIVSRQYHRWLYPHPIADLEAWTTANWEWFDPVHSHRILWPDREYRPDLDILIAGCGTNQAAIFAFTNRAAKVVAIDISRPALDHQQYLKDKHGLANLELHLLPIEELATLGRDFDLVVSTGVLHHLADPRAGMKELAHCLRRDGVVAAMLYGKYGRIGVELLGSVFRDLGLGQDDASIKLAKEAISLLPTYHPLRNYLTKARDLLSDSALVDTFLHGRQRSYTVEECVDLVTSAGLVFQGWFHKAPYYPHDFFVPNSEFYAAVNTLPEVKAWSVMERLETLNATHLFMACRRDRPKEQYTIDFSTVAALDYVPLMRTRCGVSGTDMFWPGWRMAPSPAQLAFLQQVDGRRTIREIAGCVARTGEPSGGSLADLEEFGRKLFQSLWRLDFVAVALPASG
notes: also called MTase
  stoichiometry N: 2
